Measurements: article PMC10619557, “Crystal Structures of 6-Phosphogluconate Dehydrogenase from Corynebacterium glutamicum” (Journal of Microbiology and Biotechnology, 2023)

Biological target: 6-phosphogluconate dehydrogenase from Corynebacterium glutamicum ATCC 13032 (Corynebacterium glutamicum ATCC 13032)
Assay: SEC; analytical, Superdex 200 Increase 10/300 GL; 1 ml at 1 mg/ml; 40 mM Tris-HCl pH 8.0, 150 mM NaCl; mass from a calibration curve

stoichiometry N: 2
Substance: 6-phosphogluconate dehydrogenase from Corynebacterium glutamicum ATCC 13032 (enzyme)
